Experimental data as given in US20160297884A1 (Pfizer, published 2016).

Assays:
Human BCMA = biological target: T1, Human BCMA (human, UniProt Q02223 1-54, limits assumed); assay: SPR, IgG immobilised, 37 C
T1 construct: Soluble analyte in SPR; construct not described; also called huBCMA; B-cell maturation antigen
T1 sequence (looked up): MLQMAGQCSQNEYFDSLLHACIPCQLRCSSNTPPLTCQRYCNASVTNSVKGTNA
Procedure, shortened: (§1)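 IgG amine-coupled to the chip; human or cynomolgus BCMA analyte injected by kinetic titration at 0.08–50 nM (2 min each), 2 h dissociation, in HBS-T+ with 1 mg/mL BSA, pH 7.4, at 37° C or 25° C. Double-referenced sensorgrams fit to 1:1 Langmuir with mass transport.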

cynomolgus monkey BCMA = biological target: T2, cynomolgus monkey BCMA (cynomolgus monkey, UniProt A0A2K5UD97 1-53); assay: SPR, IgG immobilised, 37 C
T2 construct: Soluble analyte in SPR; construct not described; also called cyBCMA; Cyno BCMA
T2 sequence (A0A2K5UD97 entry or part of it): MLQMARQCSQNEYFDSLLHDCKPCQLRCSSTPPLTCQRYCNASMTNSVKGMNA
Procedure, shortened: as §1

| Binder | Kd (Human BCMA) | T ½ (Human BCMA) | koff (Human BCMA) | kon (Human BCMA) | Kd (cynomolgus monkey BCMA) | T ½ (cynomolgus monkey BCMA) | koff (cynomolgus monkey BCMA) | kon (cynomolgus monkey BCMA) |
| --- | --- | --- | --- | --- | --- | --- | --- | --- |
| L3.PY/L1.AH/H2.LT (antibody, V domains shown, IgG) VH: EVQLLESGGGLVQPGGSLRLSCAASGFTFGSYAMTWVRQAPGKGLEWVSAISLTGGNTFYADSVKGRFTISRDNSKNTLYLQMNSLRAEDTAVYYCARVSPIASGMDYWGQGTLVTVSS VL: EIVLTQSPGTLSLSPGERATLSCRASQSVSAHYLAWYQQKPGQAPRLLIYGASSRATGIPDRFSGSGSGTDFTLTISRLEPEDFAVYYCQHYPYPPSFTFGQGTKVEIK | 0.39 nM | 9.38 min | 0.00123 s⁻¹ | 3.16e+06 M⁻¹ s⁻¹ | 1.35 nM | 3.91 min | 0.00296 s⁻¹ | 2.19e+06 M⁻¹ s⁻¹ |
| L3.PY/L1.AH/H2.YQ (antibody, V domains shown, IgG) VH: EVQLLESGGGLVQPGGSLRLSCAASGFTFGSYAMTWVRQAPGKGLEWVSAISYQGGNTFYADSVKGRFTISRDNSKNTLYLQMNSLRAEDTAVYYCARVSPIASGMDYWGQGTLVTVSS VL: EIVLTQSPGTLSLSPGERATLSCRASQSVSAHYLAWYQQKPGQAPRLLIYGASSRATGIPDRFSGSGSGTDFTLTISRLEPEDFAVYYCQHYPYPPSFTFGQGTKVEIK | 0.8 nM | 6 min | 0.00193 s⁻¹ | 2.42e+06 M⁻¹ s⁻¹ | 2.74 nM | 2.68 min | 0.00431 s⁻¹ | 1.58e+06 M⁻¹ s⁻¹ |
| L3.PY/L1.AH/H2.QL (antibody, V domains shown, IgG) VH: EVQLLESGGGLVQPGGSLRLSCAASGFTFGSYAMTWVRQAPGKGLEWVSAISGSGGNTFYADQLKGRFTISRDNSKNTLYLQMNSLRAEDTAVYYCARVSPIASGMDYWGQGTLVTVSS VL: EIVLTQSPGTLSLSPGERATLSCRASQSVSAHYLAWYQQKPGQAPRLLIYGASSRATGIPDRFSGSGSGTDFTLTISRLEPEDFAVYYCQHYPYPPSFTFGQGTKVEIK | 0.53 nM | 7.22 min | 0.0016 s⁻¹ | 3.04e+06 M⁻¹ s⁻¹ | 3.65 nM | 1.21 min | 0.00955 s⁻¹ | 2.62e+06 M⁻¹ s⁻¹ |
| L3.PY/L1.PH/P6E01 (antibody, V domains shown, IgG) VH: EVQLLESGGGLVQPGGSLRLSCAASGFTFGSYAMTWVRQAPGKGLEWVSAISGSGGNTFYADSVKGRFTISRDNSKNTLYLQMNSLRAEDTAVYYCARVSPIASGMDYWGQGTLVTVSS VL: EIVLTQSPGTLSLSPGERATLSCRASQSVSPHYLAWYQQKPGQAPRLLIYGASSRATGIPDRFSGSGSGTDFTLTISRLEPEDFAVYYCQHYPYPPSFTFGQGTKVEIK | 0.32 nM | 12.7 min | 0.000913 s⁻¹ | 2.81e+06 M⁻¹ s⁻¹ | 3.63 nM | 1.46 min | 0.00789 s⁻¹ | 2.17e+06 M⁻¹ s⁻¹ |
| L3.PY/L1.PS/H2.DY (antibody, V domains shown, IgG) VH: EVQLLESGGGLVQPGGSLRLSCAASGFTFGSYAMTWVRQAPGKGLEWVSAIDYSGGNTFYADSVKGRFTISRDNSKNTLYLQMNSLRAEDTAVYYCARVSPIASGMDYWGQGTLVTVSS VL: EIVLTQSPGTLSLSPGERATLSCRASQSVSSSYPSWYQQKPGQAPRLLIYGASSRATGIPDRFSGSGSGTDFTLTISRLEPEDFAVYYCQHYPYPPSFTFGQGTKVEIK | 1.12 nM | 3.2 min | 0.00361 s⁻¹ | 3.22e+06 M⁻¹ s⁻¹ | 1.99 nM | 3.06 min | 0.00378 s⁻¹ | 1.9e+06 M⁻¹ s⁻¹ |
| L3.PY/L1.PS/H2.QL (antibody, V domains shown, IgG) VH: EVQLLESGGGLVQPGGSLRLSCAASGFTFGSYAMTWVRQAPGKGLEWVSAISGSGGNTFYADQLKGRFTISRDNSKNTLYLQMNSLRAEDTAVYYCARVSPIASGMDYWGQGTLVTVSS VL: EIVLTQSPGTLSLSPGERATLSCRASQSVSSSYPSWYQQKPGQAPRLLIYGASSRATGIPDRFSGSGSGTDFTLTISRLEPEDFAVYYCQHYPYPPSFTFGQGTKVEIK | 20.6 nM | 0.04 min | 0.314 s⁻¹ | 1.52e+07 M⁻¹ s⁻¹ | 0.97 nM | 18.2 min | 0.000636 s⁻¹ | 657000 M⁻¹ s⁻¹ |
| L3.PY/L1.AH/H3.YA (antibody, V domains shown, IgG) VH: EVQLLESGGGLVQPGGSLRLSCAASGFTFGSYAMTWVRQAPGKGLEWVSAISGSGGNTFYADSVKGRFTISRDNSKNTLYLQMNSLRAEDTAVYYCARVSPIYAGMDYWGQGTLVTVSS VL: EIVLTQSPGTLSLSPGERATLSCRASQSVSAHYLAWYQQKPGQAPRLLIYGASSRATGIPDRFSGSGSGTDFTLTISRLEPEDFAVYYCQHYPYPPSFTFGQGTKVEIK | 0.5 nM | 7.73 min | 0.0015 s⁻¹ | 3e+06 M⁻¹ s⁻¹ | 2.22 nM | 2.2 min | 0.00526 s⁻¹ | 2.37e+06 M⁻¹ s⁻¹ |
| L3.PY/L1.AH/H3.AQ (antibody, V domains shown, IgG) VH: EVQLLESGGGLVQPGGSLRLSCAASGFTFGSYAMTWVRQAPGKGLEWVSAISGSGGNTFYADSVKGRFTISRDNSKNTLYLQMNSLRAEDTAVYYCARVSPIAAQMDYWGQGTLVTVSS VL: EIVLTQSPGTLSLSPGERATLSCRASQSVSAHYLAWYQQKPGQAPRLLIYGASSRATGIPDRFSGSGSGTDFTLTISRLEPEDFAVYYCQHYPYPPSFTFGQGTKVEIK | 0.65 nM | 5.85 min | 0.00197 s⁻¹ | 3.03e+06 M⁻¹ s⁻¹ | 1.78 nM | 2.9 min | 0.00399 s⁻¹ | 2.24e+06 M⁻¹ s⁻¹ |
| L3.PY/L1.PS/H2.HA (antibody, V domains shown, IgG) VH: EVQLLESGGGLVQPGGSLRLSCAASGFTFGSYAMTWVRQAPGKGLEWVSAISHAGGNTFYADSVKGRFTISRDNSKNTLYLQMNSLRAEDTAVYYCARVSPIASGMDYWGQGTLVTVSS VL: EIVLTQSPGTLSLSPGERATLSCRASQSVSSSYPSWYQQKPGQAPRLLIYGASSRATGIPDRFSGSGSGTDFTLTISRLEPEDFAVYYCQHYPYPPSFTFGQGTKVEIK | 3.21 nM | 1.09 min | 0.0106 s⁻¹ | 3.3e+06 M⁻¹ s⁻¹ | 1.86 nM | 4.3 min | 0.00269 s⁻¹ | 1.45e+06 M⁻¹ s⁻¹ |
| L3.PY/L1.FF/P6E01 (antibody, V domains shown, IgG) VH: EVQLLESGGGLVQPGGSLRLSCAASGFTFGSYAMTWVRQAPGKGLEWVSAISGSGGNTFYADSVKGRFTISRDNSKNTLYLQMNSLRAEDTAVYYCARVSPIASGMDYWGQGTLVTVSS VL: EIVLTQSPGTLSLSPGERATLSCRASQSVSSFFLAWYQQKPGQAPRLLIYGASSRATGIPDRFSGSGSGTDFTLTISRLEPEDFAVYYCQHYPYPPSFTFGQGTKVEIK | 0.59 nM | 8.18 min | 0.00141 s⁻¹ | 2.39e+06 M⁻¹ s⁻¹ | 2.41 nM | 1.96 min | 0.00591 s⁻¹ | 2.45e+06 M⁻¹ s⁻¹ |
| L3.PY/L1.AH/P6E01 (antibody, V domains shown, IgG) VH: EVQLLESGGGLVQPGGSLRLSCAASGFTFGSYAMTWVRQAPGKGLEWVSAISGSGGNTFYADSVKGRFTISRDNSKNTLYLQMNSLRAEDTAVYYCARVSPIASGMDYWGQGTLVTVSS VL: EIVLTQSPGTLSLSPGERATLSCRASQSVSAHYLAWYQQKPGQAPRLLIYGASSRATGIPDRFSGSGSGTDFTLTISRLEPEDFAVYYCQHYPYPPSFTFGQGTKVEIK | 0.49 nM | 9.19 min | 0.00126 s⁻¹ | 2.55e+06 M⁻¹ s⁻¹ | 2.65 nM | 2.02 min | 0.00572 s⁻¹ | 2.16e+06 M⁻¹ s⁻¹ |
| L3.PY/L1.AH/H3.AE (antibody, V domains shown, IgG) VH: EVQLLESGGGLVQPGGSLRLSCAASGFTFGSYAMTWVRQAPGKGLEWVSAISGSGGNTFYADSVKGRFTISRDNSKNTLYLQMNSLRAEDTAVYYCARVSPIAAEMDYWGQGTLVTVSS VL: EIVLTQSPGTLSLSPGERATLSCRASQSVSAHYLAWYQQKPGQAPRLLIYGASSRATGIPDRFSGSGSGTDFTLTISRLEPEDFAVYYCQHYPYPPSFTFGQGTKVEIK | 0.52 nM | 6.7 min | 0.00173 s⁻¹ | 3.32e+06 M⁻¹ s⁻¹ | 1.58 nM | 3.25 min | 0.00356 s⁻¹ | 2.25e+06 M⁻¹ s⁻¹ |
| L3.PY/L1.PS/H2.LT (antibody, V domains shown, IgG) VH: EVQLLESGGGLVQPGGSLRLSCAASGFTFGSYAMTWVRQAPGKGLEWVSAISLTGGNTFYADSVKGRFTISRDNSKNTLYLQMNSLRAEDTAVYYCARVSPIASGMDYWGQGTLVTVSS VL: EIVLTQSPGTLSLSPGERATLSCRASQSVSSSYPSWYQQKPGQAPRLLIYGASSRATGIPDRFSGSGSGTDFTLTISRLEPEDFAVYYCQHYPYPPSFTFGQGTKVEIK | 1.37 nM | 2.49 min | 0.00465 s⁻¹ | 3.4e+06 M⁻¹ s⁻¹ | 1.89 nM | 2.81 min | 0.00411 s⁻¹ | 2.17e+06 M⁻¹ s⁻¹ |
| L3.PY/L1.PS/H2.YQ (antibody, V domains shown, IgG) VH: EVQLLESGGGLVQPGGSLRLSCAASGFTFGSYAMTWVRQAPGKGLEWVSAISYQGGNTFYADSVKGRFTISRDNSKNTLYLQMNSLRAEDTAVYYCARVSPIASGMDYWGQGTLVTVSS VL: EIVLTQSPGTLSLSPGERATLSCRASQSVSSSYPSWYQQKPGQAPRLLIYGASSRATGIPDRFSGSGSGTDFTLTISRLEPEDFAVYYCQHYPYPPSFTFGQGTKVEIK | 1.28 nM | 2.69 min | 0.0043 s⁻¹ | 3.35e+06 M⁻¹ s⁻¹ | 1.87 nM | 3.09 min | 0.00374 s⁻¹ | 2e+06 M⁻¹ s⁻¹ |
| L3.PY/L1.AH/H2.QR (antibody, V domains shown, IgG) VH: EVQLLESGGGLVQPGGSLRLSCAASGFTFGSYAMTWVRQAPGKGLEWVSAISGSGGNTFYADQRKGRFTISRDNSKNTLYLQMNSLRAEDTAVYYCARVSPIASGMDYWGQGTLVTVSS VL: EIVLTQSPGTLSLSPGERATLSCRASQSVSAHYLAWYQQKPGQAPRLLIYGASSRATGIPDRFSGSGSGTDFTLTISRLEPEDFAVYYCQHYPYPPSFTFGQGTKVEIK | 0.58 nM | 6.39 min | 0.00181 s⁻¹ | 3.13e+06 M⁻¹ s⁻¹ | 2.23 nM | 2.35 min | 0.00491 s⁻¹ | 2.2e+06 M⁻¹ s⁻¹ |
